The target of test [1] is mouse IgG, anti-human transferrin monoclonal antibody (mfd. by BIO MATRIX RESEARCH, INC.). As to the kind of experiment: human transferrin sandwich ELISA, 100 ng/ml transferrin, 400 ng/ml labeled antibody, ABTS.
Test [2] shares this target. As to the kind of experiment: direct ELISA, mouse IgG immobilized from 10 ng/ml, about 0.8 µg/ml secondary antibody, ABTS.
For test [3] the target is unchanged. As to the kind of experiment: direct ELISA, mouse IgG immobilized from 100 ng/ml, about 0.8 µg/ml secondary antibody, ABTS.
For test [4] the target is unchanged. As to the kind of experiment: human transferrin sandwich ELISA, 1 ng/ml transferrin, luminol emission; reference horseradish POD-labeled antibodies.
For test [5] the target is unchanged. As to the kind of experiment: human transferrin sandwich ELISA, 1 ng/ml transferrin, luminol emission.
Test [6] has the same target. As to the kind of experiment: human transferrin sandwich ELISA, 100 ng/ml transferrin, luminol emission; reference Comparative Examples 6 to 8.
Test [7] shares this target. As to the kind of experiment: human transferrin sandwich ELISA, 100 ng/ml transferrin, luminol emission.
Test [8] has the same target. As to the kind of experiment: direct ELISA on immobilized mouse IgG, ABTS; reference Comparative Examples 1 and 2.
Test [9] shares this target. As to the kind of experiment: human transferrin sandwich ELISA, 1 ng/ml transferrin, luminol emission; reference Comparative Example 7.
Test [10] shares this target. As to the kind of experiment: human transferrin sandwich ELISA, 100 ng/ml transferrin, ABTS; reference Comparative Example 3.
Test [11] shares this target. As to the kind of experiment: human transferrin sandwich ELISA, 100 ng/ml transferrin, 375 ng/ml labeled antibody, ABTS.

As to “Peroxidase-conjugated AffiniPure F(ab′)2 Fragment Goat Anti-mouse IgG (H+L) (mfd. by Jackson ImmunoResearch Labs.)”, the figures for the absorbance at 405 nm in [1], in test [2] and in [3] were 0.45, 0.3 and 1.4, respectively.
For the substance “POD-labeled anti-mouse IgG (goat anti-mouse IgG (H+L) antibody, Bethyl A90-116A, reduced and labeled with maleimidated POD)”, the figures for the fold of initial stage emission value against the horseradish POD-labeled antibodies in test [4] and in [6] were greater than 3 times and greater than 14 times, respectively. For the same substance, the initial stage emission value in [5] is 300000 RLU; in test [7], 3.5e+06 RLU.
For “POD-labeled anti-mouse Fab′ (goat anti-mouse IgG (H+L) antibody, Bethyl A90-116A, pepsin-digested and reduced to Fab′, labeled with maleimidated POD)”, the fold of absorbance against the horseradish POD-labeled antibody in test [8] is 1.3 to 1.4 times; in [10], 2.2 times. The fold of initial stage emission value against the horseradish POD-labeled antibody in test [9] amounted to 8 times. The absorbance at 405 nm in [2] was determined as 0.4; in test [3] it was 1.9; in [11], 1. Further, the initial stage emission value is 800000 RLU in test [5] and 4.2e+06 RLU in [7]. In addition, the fold of initial stage emission value against the horseradish POD-labeled antibodies in [6] was greater than 18 times.
Turning to “Peroxidase-conjugated AffiniPure Goat Anti-mouse IgG (H+L) (mfd. by Jackson ImmunoResearch Labs.) (antibody)”, the figures for the absorbance at 405 nm in [2] and in test [3] were 0.3 and 1.4, respectively. Also, in [5], the initial stage emission value is 100000 RLU.

The record behind these values is patent publication US20110008814A1.
